± gives the uncertainty stated by the source.

In the Human Domainome abundance scans (Beltran et al. 2025) one finds abundance fitness data, which are given here for 47 variants.

B1: Ubiquitin-protein ligase residues 30 to 86; numbered along this chain, Q05086 (parent)
chain: KHLIERYYHQLTEGCGNEACTNEFCASCPTFLRMDNNAAAIKALELYKINAKLCDPH

This data set covers variants of B1. In words: abundance fitness (aPCA) (normalised: wild type 0, dead -1); higher = more abundant; growth selection in yeast, the domain comes from the species named. The following applies: Homo sapiens.
Regarding KHLIERYWHQLTEGCGNEACTNEFCASCPTFLRMDNNAAAIKALELYKINAKLCDPH, the abundance fitness was -0.181 ± 0.065. Under KHLIRRYYHQLTEGCGNEACTNEFCASCPTFLRMDNNAAAIKALELYKINAKLCDPH stands 0.015 ± 0.048; under KHLIERYYSQLTEGCGNEACTNEFCASCPTFLRMDNNAAAIKALELYKINAKLCDPH, 0.017 ± 0.061; under KHLIERYYEQLTEGCGNEACTNEFCASCPTFLRMDNNAAAIKALELYKINAKLCDPH, -0.131 ± 0.067. Next, KHLFERYYHQLTEGCGNEACTNEFCASCPTFLRMDNNAAAIKALELYKINAKLCDPH: -0.15 ± 0.093.

For KHLRERYYHQLTEGCGNEACTNEFCASCPTFLRMDNNAAAIKALELYKINAKLCDPH, the abundance fitness came to 0.004 ± 0.051. Consider KHLGERYYHQLTEGCGNEACTNEFCASCPTFLRMDNNAAAIKALELYKINAKLCDPH, for which the abundance fitness is -0.117 ± 0.045. Under KHLIERYYHQLTEGCGNEACTNEFCASCPTFLRMDNNAAAIKALELYKINAKLCHPH stands -0.227 ± 0.11; under KHLIERYYHQLTEGCGNEACTNEFCASCPTFLRMDNNAAAIKALELYKINAKLCAPH, -0.043 ± 0.059; under KHLIERYYHQLTEGCGNEACTNEFCAGCPTFLRMDNNAAAIKALELYKINAKLCDPH, -0.09 ± 0.048. Turning to KHLIERYYHQLTEGCGNEACTNEFCASCATFLRMDNNAAAIKALELYKINAKLCDPH, the abundance fitness was -0.118 ± 0.11. Next, KHLIERYYHQLTEGCGNEACTNEFCASCETFLRMDNNAAAIKALELYKINAKLCDPH: 0.03 ± 0.17. Next, KHLIERYYHQLTEGCGNEACTNEFCASCFTFLRMDNNAAAIKALELYKINAKLCDPH: -0.195 ± 0.16; FHLIERYYHQLTEGCGNEACTNEFCASCPTFLRMDNNAAAIKALELYKINAKLCDPH: -0.53 ± 0.32; KHLIERYYHQLTEGCGNEACTNEFCASCPTFLRMDNNAAAIKALELYKINAKLCDWH: -0.038 ± 0.096.

With KHLIERYYHQLTEGCGNEACTNEFCASCPTFLRMDNNAAAIKALELYKINAKLCDCH, the abundance fitness is -0.041 ± 0.11. For KHLIERYYHQLTEGCGNEACTNEFCASCPTFLRMDNNAAAIKALELYKINAKLCDLH, the abundance fitness is 0.044 ± 0.065. Turning to KHLIERYYHQLTEGCGHEACTNEFCASCPTFLRMDNNAAAIKALELYKINAKLCDPH, the abundance fitness was -0.008 ± 0.046. As to KHLIERYYHQLTEGCGQEACTNEFCASCPTFLRMDNNAAAIKALELYKINAKLCDPH, the abundance fitness was -0.087 ± 0.067.

On to KHLIERYYHQLTEGCGGEACTNEFCASCPTFLRMDNNAAAIKALELYKINAKLCDPH, for which the abundance fitness is -0.008 ± 0.058. Next, KHLIERYYHQLTEGCGCEACTNEFCASCPTFLRMDNNAAAIKALELYKINAKLCDPH: -0.037 ± 0.055; KHLIERYYHQLTEGCGNEACTNEFCASCPTFLRMDNNAAAIKNLELYKINAKLCDPH: -0.768 ± 0.15.

As for KHLIERYYHQLTEGCGNEACTNEFCASCPTFLRMDNNAAAIKWLELYKINAKLCDPH, the abundance fitness was -0.989 ± 0.099. Turning to KHLIERYYHQLTEGCGNEACTNEFCASCPTFLRMDNNGAAIKALELYKINAKLCDPH, the abundance fitness was -0.191 ± 0.077. Turning to KHLIERYYHELTEGCGNEACTNEFCASCPTFLRMDNNAAAIKALELYKINAKLCDPH, the abundance fitness was -0.868 ± 0.095. Take KHLIERYYHYLTEGCGNEACTNEFCASCPTFLRMDNNAAAIKALELYKINAKLCDPH: the abundance fitness is -0.277 ± 0.11. On to KHLIERYYHALTEGCGNEACTNEFCASCPTFLRMDNNAAAIKALELYKINAKLCDPH, for which the abundance fitness is -0.13 ± 0.063.

Regarding KHLIERYYHPLTEGCGNEACTNEFCASCPTFLRMDNNAAAIKALELYKINAKLCDPH, the abundance fitness is -0.86 ± 0.095. Next, KHLIERYYHQLTEGCGNEACTNEFCASCPTFLRMDNNAAAIKALEIYKINAKLCDPH: -0.056 ± 0.17; KHLIERYYHQLTEGCGNEACTNEFCASCPTFLRMDNNAAAIKALETYKINAKLCDPH: -0.278 ± 0.09. On to KHLIERYYHQLTEGCGNEACTNEFCASCPTFLRMDNNAAAIKALEPYKINAKLCDPH, for which the abundance fitness was -0.528 ± 0.11.

Take KHLIERYYHQLTEGCGNEACTNEFCASCPTFLRMDNNAAAIKALEAYKINAKLCDPH: the abundance fitness was -0.107 ± 0.064.

As for KHLIERYYHQLTEGCGNEACTNEFCASCPTFLRMKNNAAAIKALELYKINAKLCDPH, the abundance fitness was -0.199 ± 0.13. Next, KHLIERYYHQLTEGCGNEACTNEFCASCPTFLRMENNAAAIKALELYKINAKLCDPH: -0.026 ± 0.079; KHLIERYYHQLTEGCGNEACTNEFCASCPTFLRMDNNAAAIKALELYKINAKLFDPH: -0.448 ± 0.45. Under KHLIERYYHQLTEGCGNEACTNEFCASCPTFLRMDNNAAAIKALELYKINAKDCDPH stands -0.353 ± 0.12. Consider KHDIERYYHQLTEGCGNEACTNEFCASCPTFLRMDNNAAAIKALELYKINAKLCDPH, for which the abundance fitness was -0.264 ± 0.082.

KHLIERYYHQLTEGCGNEACTNEFCASCPTFLRMDNNAAAIKAYELYKINAKLCDPH: the abundance fitness was 0.131 ± 0.13.

On to KHLIERYYHQLTEGCGNEACTNEFCASCPTFLRMDNNAAAIKANELYKINAKLCDPH, for which the abundance fitness came out at 0.013 ± 0.14. Under KHLIERYYHQLTEGCGNEACTNEFCWSCPTFLRMDNNAAAIKALELYKINAKLCDPH stands -0.104 ± 0.079. Next, KHLIERYYHQLTEGCGNEACTNEFCMSCPTFLRMDNNAAAIKALELYKINAKLCDPH: -0.111 ± 0.067.

As for KHLIERYYHQLTEGCGNEACTNEFCPSCPTFLRMDNNAAAIKALELYKINAKLCDPH, the abundance fitness was -0.876 ± 0.12.

For KHLIERYYHQLTEGCGNEAETNEFCASCPTFLRMDNNAAAIKALELYKINAKLCDPH, the abundance fitness is -1.02 ± 0.25.

Consider KHLIERYYHQLTEGCGNEACTNEFCASCPTFLRMDTNAAAIKALELYKINAKLCDPH, for which the abundance fitness was -0.027 ± 0.11. Regarding KHLIERYYHQLTEGCGNEACTNEFCASCPTFLRMDNNAAAIKALYLYKINAKLCDPH, the abundance fitness is -0.217 ± 0.18. Next, KHLIERYYHQLTEGCGNEACTNEFCASCPTFLRMDNNAAAIKALWLYKINAKLCDPH: -0.372 ± 0.12. Under KHLIERYYHQLTEGCGNEACTNEFCASCPTFLRMDNNAAAIKALCLYKINAKLCDPH stands -0.276 ± 0.19.
